The values below come from the supplement of paper PMC9170038.

The subject of this data set is MS2 coat protein. Kind of data set: apparent KD of MS2 coat protein; designed switch direction (-1 OFF switch, 1 ON switch): -1; higher = weaker reporter binding. In a few lines:
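Apparent KD, taken as the median over clusters for each design, was obtained by curve-fitting normalised cluster fluorescence. Designed RNA switches had been transcribed on Illumina chips by stalled E. coli RNA polymerase and titrated with SNAP-549-labelled MS2 coat protein, doubling from 0.7 or 1.5 nM to 3 µM.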

[1] abbreviates: input ligand: microRNA oligo, concentration not stated.
The mark [2] stands for this setting: Eterna round: R95, input ligand: FMN 200 uM.
[3] abbreviates: Eterna round: R95, input ligand: microRNA oligo, concentration not stated.
Where [4] appears, read: Eterna round: R95, input ligand: none.

Turning to “AGACGUGCAGUGCUCCUCCACAUGAGGAUCACCCAUGUCACUGAGGAUAUCUGCAGGUAACUGCUGGAGAAGGCAGAAAGAAUG [Atrien] (Eterna round: R96, puzzle: Exclusion NG 3)”, the “apparent KD of MS2 coat protein” value was found to be 81.9 nM (input ligand: FMN 200 uM), 22.1 nM under setting [1] and 29.5 nM (input ligand: none).

Consider “AGACUCAUUGUGAGGAUAUCGGGUCAACGAGACUACGAGAAGGCACAUGAGGAUCACCCAUGUAGCCACGGCUA [Eternabot (L2) Solution 95] (Eterna round: R97, puzzle: Brourd's mod of Exclusion 4)”, for which the “apparent KD of MS2 coat protein” value by setting is: (input ligand: FMN 200 uM) 94.8 nM; (input ligand: none) 240 nM.

In the case of “AGAGAGUCAGGAUAUGACGAAGAGAACAUGAGGAUCACCCAUGUUGCUUCGUUUUUAUCGUCAGAAGGGACGAACU [JR_Ex5_Sub088] (Eterna round: R97, puzzle: Exclusion 5)”, the “apparent KD of MS2 coat protein” value (input ligand: FMN 200 uM) is 13.8 nM and the “apparent KD of MS2 coat protein” value (input ligand: none) was determined as 13.9 nM.

For the sequence “AGAGUGCUGCGAGGAUAUACAUGAGGAUCACCCAUGUAAUCGUCUGAGGCAAAGCCUCAGACGAAGUAGAAGGCGCAGUACUCA [Mat - Exclusion NG 2 - Mod of JL - D27] (Eterna round: R96, puzzle: Exclusion NG 2)”, the “apparent KD of MS2 coat protein” value by setting is: (input ligand: FMN 200 uM) 20 nM; under setting [1], 12.5 nM; (input ligand: none) 17.9 nM.

“AGAUAACAUGAGGAUCACCCAUGUCAGGAUAUCGACUGAACAGCUUCGGCUGUUCAGUCGAGAAGGGACAAUUA [Brourdxlusion 9 - Jieux - Exclusion 1] (Eterna round: R97, puzzle: Exclusion 1)”: the “apparent KD of MS2 coat protein” value (input ligand: FMN 200 uM) was 84.1 nM and the “apparent KD of MS2 coat protein” value (input ligand: none) was determined as 61.2 nM.

On to “AGAUCACAUGAGGAUCACCCAUGUCAGGAUAUCGUCACUGGAGCUGCGGCUCCAGUGACGAGAAGGGAUAAUUA [E1/4-A3] (Eterna round: R97, puzzle: Exclusion 1)”, for which the “apparent KD of MS2 coat protein” value (input ligand: FMN 200 uM) came to 92.4 nM and the “apparent KD of MS2 coat protein” value (input ligand: none) stood at 52 nM.

Consider “AGAUCACAUGAGGAUCACCCAUGUCAGGAUAUGAUACUAUGUACUUCGGUACAUAGUAUCAGAAGGGACAUAAA [Ex1-3: 69] (puzzle: Exclusion 1)”, for which the “apparent KD of MS2 coat protein” value by setting is: under setting [2], 31.5 nM; under setting [3], 140 nM; under setting [4], 89.2 nM.

On to “AGAUCGUCAGGAUAUACAUGAGGAUCACCCAUGUAUAGUCUAAAUUUGACUAUAAAGUGUAGAAGGGACGAUCG [Exclusion 3 (MOD6 of #1 Marzena11)] (Eterna round: R97, puzzle: Exclusion 3)”, for which the “apparent KD of MS2 coat protein” value amounted to 51.5 nM (input ligand: FMN 200 uM) and 18.1 nM (input ligand: none).

As for “AGAUGCUCAAGUCGACAUGAGGAUCACCCAUGUACAGUAAACGAGGAUAUCCGAGAUAAAUAAUAGGAGAAGGCGUGAUCAUGA [Mat - Exclusion NG 3 - Mod of JL - D55] (Eterna round: R96, puzzle: Exclusion NG 3)”, the “apparent KD of MS2 coat protein” value reads like this: (input ligand: FMN 200 uM) 337 nM; under setting [1], 66 nM; (input ligand: none) 86.3 nM.

Regarding “AGAUGCUCAAGUCGACAUGAGGAUCACCCAUGUACAGUUAAUGAGGAUAUCCGAGAUAAAUAAUAGGAGAAGGCGUGAACAUGA [Ex NG3 #8] (Eterna round: R96, puzzle: Exclusion NG 3)”, the “apparent KD of MS2 coat protein” value reads like this: (input ligand: FMN 200 uM) 72.4 nM; under setting [1], 50.6 nM; (input ligand: none) 94.1 nM.

“AGAUGCUCAAGUCGACAUGAGGAUCACCCAUGUACAGUUAAUGAGGAUAUCCGAGAUAAAUAAUAGGAGAAGGCGUGAUCAUGA [Ex NG3 #7] (Eterna round: R96, puzzle: Exclusion NG 3)”: the “apparent KD of MS2 coat protein” value reads like this: (input ligand: FMN 200 uM) 284 nM; under setting [1], 383 nM; (input ligand: none) 458 nM.

“AGAUGGCGAGGAUAUACAUGAGGAUCACCCAUGUGAGAAGAGAAAGUGAGGAAGAAAAGUAGAAGGCGCUGUCA [Mat - Exclusion 3 - Mod of Salish D21] (puzzle: Exclusion 3)”: the “apparent KD of MS2 coat protein” value is, setting by setting: under setting [2], 200 nM; under setting [3], 60.9 nM; under setting [4], 57 nM.

With “AGAUUAAUAGUAAGGAUAUGAUGCAGGAAACUGCGUCAGAAGGUACAUGAGGAUCACCCAUGUUAAACUAAUUU [Explosion 7 - Jieux - Brourd's mod of Exclusion 4] (Eterna round: R97, puzzle: Brourd's mod of Exclusion 4)”, the “apparent KD of MS2 coat protein” value by setting is: (input ligand: FMN 200 uM) 17.4 nM; (input ligand: none) 15 nM.

As to “AGAUUGUUAGGAUAUUCGGACCGCUACGAAGCGUGGUCCAGGGAGAAGGAACAUGAGGAUCACCCAUGUGACCA [Eternabot (L2) Solution 33] (Eterna round: R97, puzzle: Exclusion 4)”, the “apparent KD of MS2 coat protein” value came out at 69.7 nM (input ligand: FMN 200 uM) and 26 nM (input ligand: none).

For “AGCAAGUUAGGAUAUCUUAAAGUUAGGUGAUGUCCUGUUUGAGAGAAGGAACAUGAGGAUCACCCAUGUGGUCA [Eternabot (L2) Solution 56] (Eterna round: R97, puzzle: Exclusion 4)”, the “apparent KD of MS2 coat protein” value (input ligand: FMN 200 uM) amounted to 58.3 nM and the “apparent KD of MS2 coat protein” value (input ligand: none) was determined as 62.6 nM.

“AGCCACAGAGGAUAUACAUACAUCCAGUAGUAGAGUCUACUACAUGAGGAUCACCCAUGUAGAAGGCUGUGGCA [Omei Ex2 BD B16] (Eterna round: R97, puzzle: Exclusion 2)”: the “apparent KD of MS2 coat protein” value (input ligand: FMN 200 uM) amounted to 419 nM and the “apparent KD of MS2 coat protein” value (input ligand: none) was determined as 37.1 nM.

In the case of “AGCCCUGCAGGAUAUGCCCGGGAUAACAUGAGGAUCACCCAUGUGACCGAUUGUUAAUCUGCAGAAGGGCAUGGGA [JL-EX5-4.18 ViennaUCT mod] (Eterna round: R97, puzzle: Exclusion 5)”, the “apparent KD of MS2 coat protein” value runs as follows: (input ligand: FMN 200 uM) 313 nM; (input ligand: none) 563 nM.

Turning to “AGCCGUCUAGGAUAUACAUAAGAUCGGCAGUCUCCGUCGAGACAUGAGGAUCACCCAUGUAGAAGGAGGCGGGA [EX2 A.22] (Eterna round: R97, puzzle: Exclusion 2)”, the “apparent KD of MS2 coat protein” value by setting is: (input ligand: FMN 200 uM) 208 nM; (input ligand: none) 47.2 nM.

“AGCCUAGCAGGAUAUGCCCGGGAUAACAUGAGGAUCACCCAUGUGACCGAUUGAUGUCCUGCAGAAGGGCUAGGGA [JL-EX5-4.00 ViennaUCT mod] (Eterna round: R97, puzzle: Exclusion 5)”: the “apparent KD of MS2 coat protein” value by setting is: (input ligand: FMN 200 uM) 20.9 nM; (input ligand: none) 18.5 nM.

In the case of “AGCCUAGCAGGAUAUGCCCGGGAUAACAUGAGGAUCACCCAUGUGACUGAUUGAUAUCUUGCAGAAGGGCUAGGGA [JL-EX5-4.06 ViennaUCT mod] (Eterna round: R97, puzzle: Exclusion 5)”, the “apparent KD of MS2 coat protein” value by setting is: (input ligand: FMN 200 uM) 187 nM; (input ligand: none) 25.5 nM.

Turning to “AGCGAAUAAGCAGGAUAUGAGAAUAGAUAGAGCUCAGAAGGGCUACAUGAGGAUCACCCAUGUAAAGUCUUGAGGCUGCGUGGU [Prohibition 13 - Jieux - Exclusion NG 1] (Eterna round: R96, puzzle: Exclusion NG 1)”, the “apparent KD of MS2 coat protein” value by setting is: (input ligand: FMN 200 uM) 22.5 nM; under setting [1], 14.4 nM; (input ligand: none) 18.4 nM.

“AGCGAGGCAGGAUAUACAUGAGGAUCACCCAUGUACUUGUAUGGCGUGGAACAUCGUGGUAGAAGGGCCGUGCU [EX3 #81] (Eterna round: R97, puzzle: Exclusion 3)”: the “apparent KD of MS2 coat protein” value is, setting by setting: (input ligand: FMN 200 uM) 101 nM; (input ligand: none) 355 nM.

Regarding “AGCGCCAUCGUGAGAUGGCGUAUUACAUGAGGAUCACCCAUGUAGGAUAUCGAUUGCUUUGCAGUCGAGAAGGGCAUGUACCAG [JL ENG3 3.80 Mod K] (Eterna round: R96, puzzle: Exclusion NG 3)”, the “apparent KD of MS2 coat protein” value runs as follows: (input ligand: FMN 200 uM) 54.7 nM; under setting [1], 32.8 nM; (input ligand: none) 46 nM.

For “AGCUAAAUAGGAUAUGCCCGGGAUAACAUGAGGAUCACCCAUGUGACCGAUUCAUGUCCUGCAGAAGGGUUUGGGA [Mod of ViennaUCT 6 - Jieux - Exclusion 5] (Eterna round: R97, puzzle: Exclusion 5)”, the “apparent KD of MS2 coat protein” value reads like this: (input ligand: FMN 200 uM) 14.3 nM; (input ligand: none) 13.5 nM.

On to “AGCUAGAUAGGAUAUGCCCGAGAUAACAUGAGGAUCACCCAUGUGACCGAAUCUAAUCUAGCAGAAGGGUUUAGGA [Mod of ViennaUCT 16 - Jieux - Exclusion 5] (Eterna round: R97, puzzle: Exclusion 5)”, for which the “apparent KD of MS2 coat protein” value was determined as 15.4 nM (input ligand: FMN 200 uM) and 15.1 nM (input ligand: none).

Turning to “AGCUAGUCAGGAUAUUCUAUUAAUUACAUGAGGAUCACCCAUGUGAAUGGGCAAGGGUGUGAAGAAGGGACUAGCG [Omei Ex5 A16] (Eterna round: R97, puzzle: Exclusion 5)”, the “apparent KD of MS2 coat protein” value is 305 nM (input ligand: FMN 200 uM) and 1030 nM (input ligand: none).

For “AGCUAGUCAGGAUAUUCUGUUAAUUACAUGAGGAUCACCCAUGUGAAUGGACAAGGGUGUGAAGAAGGGACUAGCG [Omei Ex5 A15] (Eterna round: R97, puzzle: Exclusion 5)”, the “apparent KD of MS2 coat protein” value came to 124 nM (input ligand: FMN 200 uM) and 248 nM (input ligand: none).

Turning to “AGCUAGUGCCGAGGAUAUACAUGAGGAUCACCCAUGUAGCCGUGAGGCUUUGUCUCACGGGAUAUGUAGAAGGCGGCGUUGGCA [JL ENG2 1.53] (Eterna round: R96, puzzle: Exclusion NG 2)”, the “apparent KD of MS2 coat protein” value (input ligand: FMN 200 uM) was found to be 34.1 nM, the “apparent KD of MS2 coat protein” value under setting [1] stood at 11.8 nM and the “apparent KD of MS2 coat protein” value (input ligand: none) amounted to 18.3 nM.

With “AGCUGUGGCCGAGGAUAUCACAUGAGGAUCACCCAUGUAUAUGAUUAGGCCUGGUAACAGGCUCGUGAGAAGGCGGUCUCAGCA [Eli eng2 - 012] (Eterna round: R96, puzzle: Exclusion NG 2)”, the “apparent KD of MS2 coat protein” value (input ligand: FMN 200 uM) is 28.4 nM, the “apparent KD of MS2 coat protein” value under setting [1] was determined as 19.5 nM and the “apparent KD of MS2 coat protein” value (input ligand: none) is 31.3 nM.
